Reference: paper PMC2615627

Key:
[1] = target: T1, hRPA (replication protein A heterotrimer RPA1+RPA2+RPA3) (human (Homo sapiens), UniProt P27694;P15927;P35244 1-616;1-270;1-121); assay: EMSA
[2] = target: T1, hRPA (replication protein A …); assay: EMSA; remark: listed apart in the source

T1 sequence (P27694 whole entry, chain 1 of 3): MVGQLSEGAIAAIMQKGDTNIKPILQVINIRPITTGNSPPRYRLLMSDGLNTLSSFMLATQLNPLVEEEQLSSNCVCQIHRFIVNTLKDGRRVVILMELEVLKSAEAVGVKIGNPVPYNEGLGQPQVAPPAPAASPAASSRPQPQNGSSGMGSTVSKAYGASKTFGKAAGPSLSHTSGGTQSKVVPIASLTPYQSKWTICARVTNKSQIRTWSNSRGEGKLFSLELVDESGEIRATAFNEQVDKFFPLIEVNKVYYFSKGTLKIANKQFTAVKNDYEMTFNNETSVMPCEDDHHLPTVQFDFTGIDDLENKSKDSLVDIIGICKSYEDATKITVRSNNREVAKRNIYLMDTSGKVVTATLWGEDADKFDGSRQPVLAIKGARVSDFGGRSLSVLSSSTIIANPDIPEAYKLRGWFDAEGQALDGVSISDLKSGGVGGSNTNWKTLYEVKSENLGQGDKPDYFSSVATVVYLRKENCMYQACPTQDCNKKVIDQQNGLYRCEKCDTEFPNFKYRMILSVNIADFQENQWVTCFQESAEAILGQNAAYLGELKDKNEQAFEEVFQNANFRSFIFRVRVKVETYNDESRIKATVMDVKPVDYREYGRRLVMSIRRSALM
T1 sequence (P15927 whole entry, chain 2 of 3): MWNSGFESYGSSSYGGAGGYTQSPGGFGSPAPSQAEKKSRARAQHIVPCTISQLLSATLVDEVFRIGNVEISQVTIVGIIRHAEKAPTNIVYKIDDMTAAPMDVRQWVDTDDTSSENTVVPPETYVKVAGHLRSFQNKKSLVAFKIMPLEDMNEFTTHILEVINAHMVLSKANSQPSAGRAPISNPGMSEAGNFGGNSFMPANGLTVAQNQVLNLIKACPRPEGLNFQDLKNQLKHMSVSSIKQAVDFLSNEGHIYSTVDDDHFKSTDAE
T1 sequence (P35244 whole entry, chain 3 of 3): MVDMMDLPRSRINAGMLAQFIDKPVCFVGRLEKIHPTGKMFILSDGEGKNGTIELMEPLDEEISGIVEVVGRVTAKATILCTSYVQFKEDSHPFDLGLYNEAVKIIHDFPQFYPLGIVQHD

Binder | binding result [1] | binding signal [2]
GATCTCGGCGACGCACACGCGTCCTAACTCG (ssDNA) [Oligo 31] | binds | –
TTTTTTTTTTTTTTTTTTTTTTTTTTTTTTT (ssDNA) [poly(dT)31] | – | ~10 fold higher affinity than Oligo 31
